Source: paper PMC5436050

Biological target: H1G101C, a mutant of X. laevis linker histone H1°, labeled with Cy5 (Xenopus laevis) (UniProt P22844)

Sequence of N-terminally His6-tagged yeast Nap1 (P25293 whole entry): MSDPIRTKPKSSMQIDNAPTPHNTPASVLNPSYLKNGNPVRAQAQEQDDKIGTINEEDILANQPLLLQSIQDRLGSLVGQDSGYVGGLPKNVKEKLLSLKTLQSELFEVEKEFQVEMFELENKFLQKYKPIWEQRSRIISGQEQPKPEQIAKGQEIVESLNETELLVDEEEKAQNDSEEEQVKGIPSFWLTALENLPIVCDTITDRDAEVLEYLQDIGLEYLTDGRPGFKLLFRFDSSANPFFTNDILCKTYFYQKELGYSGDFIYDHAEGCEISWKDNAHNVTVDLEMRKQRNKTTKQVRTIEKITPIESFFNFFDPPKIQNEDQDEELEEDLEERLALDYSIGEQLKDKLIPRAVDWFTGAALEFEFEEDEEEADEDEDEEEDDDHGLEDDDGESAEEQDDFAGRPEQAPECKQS

For “N-terminally His6-tagged yeast Nap1 (from UniProt P25293 1-417) (natural protein)”, the percent of nucleosomes still bound with H1 with 60 nM Nap1 was 17.5%.
